These results are taken from patent publication US20260117244A1, “INHIBITORY RNA FOR THE CONTROL OF PHYTOPATHOGENS” (priority 2021, published 2026).

In this data set the test system is G. orontii MGH1. Kind of data set: Spray-induced gene silencing (SIGS), G. orontii spore production on A. thaliana (whole plant and detached leaf assays). The class given is in vivo, Golovinomyces orontii. Conditions: topical dsRNA against G. orontii target (Gor Seq ID), n>=3.

B1: 122 (nucleic acid, listed as Golovinomyces orontii)
chain: ATGAAAGCCAAACACCTAATTCTGACCATAGCGCTTGCGGCTACTGCGAGGGCAGAAGATCAATATGATGCTTCTGAACTACCACAGTTGAAACATCAGCAGTTAAGAATACCTTTTCCGACAGCTATTGCTGAATCGAAGTGCAGCTGTGCCACTGAATATATAACATCTACAGGCGAGGGTTTTCTTTATACTGCTGATGTATCATCAATTACCAAAAATTTTGATCCGCAACCGACTCACGAGTATCCTCTAATCGTTGAACCATCCATATCCGTTAATTGTCCGCCCCCGTCCACCATTACTGTAACCGAGACAAAATATATTACTTTGATGCCTGATCTAGCACCATCTGATCCTGCTAGTCCGATCTTAGAACCGCAAAATACCGATGCCGGACCAAACTCTCCATTAAATCCCTCTAGCCCGATATTAGATCACCCAAATACTGATACTGGGCCGCCTTCTCCACCTGCTCCAGTCGTTTCTAACATTGAGATATCTCCGTCAGCCCCAGACCCCAGCCCTGAAGTATCTTCAAAACCACATACTGGCACACTGGGATCTAACAATGGTCTGTGGGCAATCACTTTTTCTCCATTTAATGATGATGGAACGTGCAAAGGTGAGACTGCTGTTTGGGAAGATGTGCGCTTGATTCGTAGCGCTGGCTTCAAGGCAATTCGTGTCTATGGTACTGAATGTTCGGGAATTGAACACGTCAGTTCTGCCGCCAGTTTTCACGGACTAAAACTTATTATCGGTATATTTATCAGCGAATCTGGTTGTTCTGGTGCTGCGGAGCAAGTAACTCATATCACAAAATGGGCCAAATGGGAAATTGTCGAGCTAATTGTGATTGGAAACGAAGCCCTATTTAATGGCCATACTTCTCCAGATGAGCTCGCAAGATTTATTAGCTCAACCAGAAATACACTACGATCCTCTGGTTACAATGGACCTTGCACAACAGCTGAGCCTCTCAATATCTGGCAGCAAAGCTCGGATGTATTGTGTGGTGCAGTTGATATCGTTGGATGTAACATTCATCCATTTTTCAATCCAGAAGTTGACGCTAGTCATGCCGGACCTTTCGTCAAGAGTCAGCTCGAAATTGTTAATAACATTTGTCCAAGCAAATATGGTATCAACCTCGAATGTGGATGGCCTTCGGCTGGCGAGTGCAACGGCAAGGCTTGTCCTGGTGAGTCGGAGCAAAAAATTGCTGTGGAAAGCATTCAGTCATTTGCTGGCAACGTGTCGGTAATGTTTACATACACCAACGATAAATGGAAAGACCCAGGCCCCCTCAAGATTGAGCAGAGTTTCGGATTAATTAAGCTCCTGAATAGCCACTAG
modifications: listed as DNA
As to B1, the “G. orontii Spore Production on Arabidopsis, Whole Plant Assay, % reduction” value was 33%.

B2: 169 (nucleic acid, listed as Golovinomyces orontii)
chain: ATGGATATGGATATGAATATGAGCACAGGAATGAATGCAAGTCCAATAATCGGAGGCAACGAAGTCCATTCACATCCAATGGATATGGGAAGGGATATGTCGATGACTTTTTTTAATGGCATGACAACTAAACTCTATACCTCGACGTGGGCACCAAAAAGTTTAGGCACTTATATAGCGACTTGTTTATTTCTCATCGCTTTATCCAGCATATCTAGGTTTCTATTAGCCGCCAAGTTATGGCTAGAAACAACTTGGATGAACGCTGAGCTCAATCGAAAATATGTTACGGCTGCTGGAAAAGTACCAATCTCAGAACAGATTTCAATGAAGTCTGAAGCTCGGCAAATGGTACTATCTGGAAATGGTTTTGAAGAAGATGTGATAGTCGTTCAAAAGAAAGGATTCCGTGTACGGCCCTGGAGTATTACTGTGGATCCAATCCGAGCGCTGATAGACACCACAATTATGGCAGTGGGATTATTAATAATGCTGGCCGTTATGACAATGAATATTGGGTATTTTATATCGGTTTTGATAGGCACATTTATTGGCAGCCTAGTTGTCGGGCGTTATTCTCCTGAATAA
modifications: listed as DNA
For B2, the “G. orontii Spore Production on Arabidopsis, Detached Leaf Assay, % reduction” value stood at 54%.

B3: 140 (nucleic acid, listed as Golovinomyces orontii)
chain: ATGCAATTCACTCAACTTCTCATCTTAGCCTTCGTCGCTTGCGTGGCTGCTACACCATCAGGATTGAACTTTTACGCGCGAAGAACTGACGGTGGAGACGACGAATCACCACAGACATGTACTCAGGCCCTACAAGCTATTCCCAAGTGCGCTCTGAGTTGCATCACACAACCCCCAATCGACGCCGGTTGCAAATCAGCTGCTGACTTCGCTTGCACCTGTGAGAAAAAGACCCAAAAACAAATTACAAAGGCAGAAACTCCTTGTGTTCTCAAGGCTTGCGGACTAAAAGAGGCACTTGCTGCTTCTAAGGCTGGAAAAGCTGTATGTGAGGCTTGCAACACATCCCCAAGCGACCCATCCGACGGTCACGGTGACGACGGAGATGACGATTCATACGATAGCTCTGATTCTGAATAA
modifications: listed as DNA
Take B3: the “G. orontii Spore Production on Arabidopsis, Detached Leaf Assay, % reduction” value was 37% and the “G. orontii Spore Production on Arabidopsis, Whole Plant Assay, % reduction” value is given as 60%.

B4: 124 (nucleic acid, listed as Golovinomyces orontii)
chain: ATGTTCCTCAGAGCTTCGTTGACCTTCTGGGCTCTCTTGGCCACAGAGATAAGTCTGTCCACGACAGCCTCCGTTAGACGACTGGAGAATCGCGAGGTTGTTGACGATATTAATGACAATGGAATCATGATTGAGTGGGCAAGATGCAAAGGTAGACACTACGATAAAGATGAAATATATGAAACGCTCAAACAAGCTTGTGAGACGAAAAATTCATCTACCATTTTTGAAAAAGCCGTCAATCTTCGTCCACATATCCCATCGTCATCAGAGAAGTATCATCATGAGATCAACCCTCCCTACTACGCGTACTCTCTGCATGATACCGTATTCAAAGATAAACTACATCCAATCGATGTTATCGTGATGAACGATGAATGTAAGCTGGCTGGTGTACTCATGGAGACCACCAAGATCAGCTGCAACGACGACACGTGCGGCTCCGAACCCCGGTACAAAGATTGTGAGATCCGATTAACGAAAACCGCTCCGACGTCGACAGAGACGACTCAGGTTGCGGAATTGTCTTGA
modifications: listed as DNA
For B4, the “G. orontii Spore Production on Arabidopsis, Whole Plant Assay, % reduction” value is 33%.

B5: 179 (nucleic acid, listed as Golovinomyces orontii)
chain: ATGCAGATCTCACGCATCACATTTATCTCTTTCTTCATCGCCCTTGTCGCGGCTCATCCAACTCTTAATGAACGACAAACAATTACCATCCCAAAAATTCCTGAAGTTCCAGCCGTCCCCGAAGTTCCCGCTGTTCCTGAAGTACAAAAGCGTCAACAGACGATAACTGTTCCCACGATCCCCACGATTCCTACCGTGCCAGATGTTCCTGCTGACACACGAATAAAGCTGTCCACAAACTCAATGGCTACGCCAAACTCTATGCTGGACAAGAGACCTGAAGTGTGGCATATCCATGATAACCGGATAACTGGTCGGAAAATATTCAAAGCTAAATGA
modifications: listed as DNA
Consider B5, for which the “G. orontii Spore Production on Arabidopsis, Whole Plant Assay, % reduction” value was 41%.

B6: 167 (nucleic acid, listed as Golovinomyces orontii)
chain: ATGCTTCTAACTAAGATTCACACCGCACCAGAACTAGACTCATTTACAGCACTCGAAGATCATCAATCAAAGACTCCCGACAAATTTTATGAAACGAAACCTGTCCTATACTTTCATGACAATAATGCCAGAGCTCTTATCGTCAAAAGTCAGCTTGTCAAATTACCCATCTGTGAATTAAATTCTTCGGAAAATGAACCTGAATCAAGCCCAAAAATAGCTAATGTCGAAGTGTTTGTCAATTCCCAGAAATTGATTATATTTAACCCTGTCGAATGCATTGGCTACGCTATTCCCTACTCAGCGATTACTCTTCATGCTATCCAGAGATTAAAAGATCCAATAGATTCATATCTGGAAATACAAGGACTCTACATGCAAATAAATATATCAGATTGCAGTGGTGACGAACAACAAGATGAAGATTCGACCTATGTAGATCTAACTCTCATACCATCACTCAACTCTGATACCATAACTAAACCAAGAATCCAAACACTCTACGAGGCGGTCTCTGCCTGTTCCGACTTAAATCCTGACTTGAATCCGGAAGACGATGGGATAACTGAAGATGTAGGTGAAGAATCTAGGATAATATTTGAAGGCACTGATGGTCTTCCTGGTGTTTTCAACGGCGGATCAGATGGCAACCTCCCACCGCCGTTTCCTGGTAGTGGGGGATGGATAACAGCTGAGAATATGTCTCAATTTTTAGACGAAGAAGGTAATTGGATTGGGAAAAGCGATAACGGTGAGGATTCAATGGTTATCGGATAA
modifications: listed as DNA
As for B6, the “G. orontii Spore Production on Arabidopsis, Detached Leaf Assay, % reduction” value came out at 39%.

B7: 146 (nucleic acid, listed as Golovinomyces orontii)
chain: ATGGCTCAATCCCCGGACAGTAAGGTAGAGAAAGTCTTTACGACAAATCACCTCGGAATTGGCAGGCTCCAAGGAAAGAACGCAATTGTGACCGGAGCAGCAGGTGGTATCGGCTTGGAAACATGCATTTTATTCGCCAGAGAAGGTGCCAATGTTCTTTTGGCCGACATTTCAGCTCCAGCCCTAGAAAAAGCATATGCCAAGATTGCTCAACTTGTACCTTCGGCTCGCAAGGTCGAGAAAATGCTATGTGATGTTTCCAAGGAGGGAGACGTCAAAGCTATGGTTGACCATGTTGATTCATGGGGTGGTGTTGACATTATTTTTAACAATGCGGGCATAATGCATGCTGATGATGCTGATGCAGTTGACACCCCTGAGAAGATTTGGGATCTCACTCAGGCTATCAACGTGAAAGGTGTCTGGTTCGGCTGCAAACATGCAGTCATCTCATTTCGAAAGCATAAAAAGTCAAAGGGCTGTGTCATCAATACAGCCTCTGTTGTTGCTTTGGTGGGATCTGCAACTCCACAACTTGCCTACACCGCGAGTAAAGGAGCTGTTCTAGCTCTAACGCGGGAGCTTGCAATTGTACATGCACGCGAGGCGCCGTTGAACACTCCCTTACTTCAGGATTGGCTTGGAGATGACCAGCCTAAGCGACTTCGTCGGGAAATTCATTTTCCATGTGGCCGCTTCGGCGAAGCTGTTGAACAAGCTCGTGCTGTTCTTTTCTTAGCTTCCGATGACGCCAATTTCATTAATGGGCAGGAATTTGTTGTCGATGGCGGAATGACTAAAGCATATGTGACTCCAGAAGGTCCCCCGACCGAGGCGCCTATAAATAACTCATTACTCTCTGAGCCAATCGATAATTTTAAGACCACTAACTCATCAGACATGGGAGTTTGA
modifications: listed as DNA
On to B7, for which the “G. orontii Spore Production on Arabidopsis, Detached Leaf Assay, % reduction” value amounted to 63% and the “G. orontii Spore Production on Arabidopsis, Whole Plant Assay, % reduction” value is reported as 42%.

B8: 123 (nucleic acid, listed as Golovinomyces orontii)
chain: ATGTTGTGCTTCATTTCCATCTTCACAACAGCTCTCCTAATCTCTCCCTCCCTAGGAGTTAATTCAGCTCAGAACGGCGAAACTCCCGATGACGATTCATTAGGTTCTACGAAACACATGAACTTTGGCTCTGGTCTCTCTGAATTCAATGCTCATGAAGATATGTATGTTCCTGCCATGGATCTGAATGGGTTTAGAATAAAGCGACGACATTTTCAAAATGAAGGCTATTACTGCAGCAAATCGCGCAATCACCTCGAATTTACAAATCAATCTTTCGTGAAGAATGAAGCTAAGAAGGCATGCAAGGGTCTTGAAAGGTCAAAACACGAACACAAACACGAACATGAACATGAGCACGAAGATAAACATGAATATAAAGAATATGAAGAAGAAGAAGAAGAAGAAGAAGAAGAAGAAGAAGAAGAAAATAAAATAAAAAAAGGAAAGAAAGGAAAGAAACATTCCGATTACCCTCATCCATACAATGCAGTCAAATATGTAAAATATTCCCCACCATACTTCGAACACCGAATCCATGATGTGAAGAAAAATAAATCAGGTCTGAGCGTCATCATAGATATCGACTGTCATATTGTTGATGTTGTTGCTCTCAACCAAGATAAACGATACCATCAATGTGCCCGTGCATGA
modifications: listed as DNA
In the case of B8, the “G. orontii Spore Production on Arabidopsis, Detached Leaf Assay, % reduction” value was 38% and the “G. orontii Spore Production on Arabidopsis, Whole Plant Assay, % reduction” value was 32%.
